In the supplement of paper PMC10567573:

B1: KRT15 (parent)
chain: FGGGSTRGGSLLAGGGGFGGGSLS
B2: IQUB (parent)
chain: CRNCINLQNEAQKRESFLKYKCLL
B3: WDR41 (parent)
chain: HVGELIIWDALDWTMQAYERNFWD

Variants of: B1
Test: protein stability index of a GFP-peptide fusion (GPS, HEK-293T) (PSI 1-6); higher = more stable
Details: c terminus: a fixed tail appended
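Note: lentivirally expressed fusions sorted by FACS into six bins by GFP to DsRed ratio, PSI derived from sequencing read proportions per bin multiplied by bin number.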

| Variant | protein stability index |
| --- | --- |
| FGGGSTRGGSLLAGGGGFGGGSLI [S24I] | 1.84 |
| FGGGSTRGGSLLAGGGGFGGGSLP [S24P] | 2.66 |
| FGGGSTRGGSLLAGGGVFGGGSLS [G17V] | 1.23 |
| FGGGSTRGGSLLAGGGHFGGGSLS [G17H] | 1.63 |
| FGGGSTRGGSLLAGGGTFGGGSLS [G17T] | 3.32 |
| FGGGSTRGGSLLAGGGNFGGGSLS [G17N] | 1.41 |
| FGGGSTRGGSLLAGGGEFGGGSLS [G17E] | 2.74 |
| FGGGSTRGGSLLAGGGCFGGGSLS [G17C] | 1.03 |
| FGGGSTRGGSLLAGGGMFGGGSLS [G17M] | 1.07 |
| FGGGSTRGGSLLAGGGKFGGGSLS [G17K] | 1.41 |
| FGGGSTRGGSLLAGGGSFGGGSLS [G17S] | 1.64 |
| FGGHSTRGGSLLAGGGGFGGGSLS [G4H] | 2.22 |
| FGGWSTRGGSLLAGGGGFGGGSLS [G4W] | 2.61 |
| FGGESTRGGSLLAGGGGFGGGSLS [G4E] | 2.55 |
| FGGPSTRGGSLLAGGGGFGGGSLS [G4P] | 2.94 |
| FGGLSTRGGSLLAGGGGFGGGSLS [G4L] | 2.04 |
| FGGCSTRGGSLLAGGGGFGGGSLS [G4C] | 1.37 |
| FGGKSTRGGSLLAGGGGFGGGSLS [G4K] | 2.15 |
| FGGMSTRGGSLLAGGGGFGGGSLS [G4M] | 1.89 |
| FGGQSTRGGSLLAGGGGFGGGSLS [G4Q] | 2.17 |
| FGGRSTRGGSLLAGGGGFGGGSLS [G4R] | 1.58 |
| FGGFSTRGGSLLAGGGGFGGGSLS [G4F] | 1.77 |
| FGGSSTRGGSLLAGGGGFGGGSLS [G4S] | 1.68 |
| FGGISTRGGSLLAGGGGFGGGSLS [G4I] | 2.59 |
| FGGGSTRGGSLLRGGGGFGGGSLS [A13R] | 2.67 |

| Variant | protein stability index |
| --- | --- |
| FGGGSTRGGSLLMGGGGFGGGSLS [A13M] | 2.13 |
| FGGGSTRGGSLLHGGGGFGGGSLS [A13H] | 2.53 |
| FGGGSTRGGSLLCGGGGFGGGSLS [A13C] | 1.94 |
| FGGGSTRGGSLLIGGGGFGGGSLS [A13I] | 1.46 |
| FGGGSTRGGSLLLGGGGFGGGSLS [A13L] | 2.1 |
| FGGGSTRGGSLLVGGGGFGGGSLS [A13V] | 1.94 |
| FGGGSTRGGSLLDGGGGFGGGSLS [A13D] | 3.4 |
| FGGGSTRGGSLLAGGGGFGGGHLS [S22H] | 2.29 |
| FGGGSTRGGSLLAGGGGFGGGLLS [S22L] | 1.6 |
| FGGGSTRGGSLLAGGGGFGGGFLS [S22F] | 2.49 |
| FGGGSTRGGSLLAGGGGFGGGQLS [S22Q] | 1.48 |
| FGGGSTRGGSLLAGGGGFGGGTLS [S22T] | 2.05 |
| FGGGSTRGGSLLAGGGGFGGGRLS [S22R] | 2.82 |
| FGGGSTNGGSLLAGGGGFGGGSLS [R7N] | 1.7 |
| FGGGSTKGGSLLAGGGGFGGGSLS [R7K] | 2.32 |
| FGGGSTDGGSLLAGGGGFGGGSLS [R7D] | 1.54 |
| FGGGSTPGGSLLAGGGGFGGGSLS [R7P] | 3.05 |
| FGGGSTRGGSFLAGGGGFGGGSLS [L11F] | 1 |
| FGGGSTRGGSILAGGGGFGGGSLS [L11I] | 1.56 |
| FGGGSTRGGSALAGGGGFGGGSLS [L11A] | 2.83 |
| FGGGSTRGGSYLAGGGGFGGGSLS [L11Y] | 1.97 |
| FGGGSTRGGSNLAGGGGFGGGSLS [L11N] | 2.78 |
| FGGGSTRGGSMLAGGGGFGGGSLS [L11M] | 1.6 |
| FGGGSTRGGSRLAGGGGFGGGSLS [L11R] | 2.08 |
| FNGGSTRGGSLLAGGGGFGGGSLS [G2N] | 2.94 |

| Variant | protein stability index |
| --- | --- |
| FPGGSTRGGSLLAGGGGFGGGSLS [G2P] | 1.96 |
| FRGGSTRGGSLLAGGGGFGGGSLS [G2R] | 2.79 |
| FQGGSTRGGSLLAGGGGFGGGSLS [G2Q] | 2 |
| FKGGSTRGGSLLAGGGGFGGGSLS [G2K] | 3.23 |
| FFGGSTRGGSLLAGGGGFGGGSLS [G2F] | 2.47 |
| FMGGSTRGGSLLAGGGGFGGGSLS [G2M] | 2.15 |
| FWGGSTRGGSLLAGGGGFGGGSLS [G2W] | 2.54 |
| FSGGSTRGGSLLAGGGGFGGGSLS [G2S] | 1.75 |
| FGGGSVRGGSLLAGGGGFGGGSLS [T6V] | 1.23 |
| FGGGSMRGGSLLAGGGGFGGGSLS [T6M] | 1.33 |
| FGGGSFRGGSLLAGGGGFGGGSLS [T6F] | 2.52 |
| FGGGSKRGGSLLAGGGGFGGGSLS [T6K] | 1.66 |
| FGGGSHRGGSLLAGGGGFGGGSLS [T6H] | 1.48 |
| FGGGSERGGSLLAGGGGFGGGSLS [T6E] | 1.62 |
| FGGGSTRGGSLLAGGGGPGGGSLS [F18P] | 2.21 |
| FGGGSTRGGSLLAGGGGHGGGSLS [F18H] | 3 |
| FGGGSTRGGSLLAGGGGIGGGSLS [F18I] | 1.76 |
| FGGGSTRGGSLLAGGGGFGGDSLS [G21D] | 1.75 |
| FGGGSTRGGSLLAGGGGFGGSSLS [G21S] | 1.95 |
| FGGGSTRGGSLLAGGGGFGGRSLS [G21R] | 1.24 |
| FGGGSTRGGSLLAGGGGFGGISLS [G21I] | 1.34 |
| FGGGSTRGGSLLAGGGGFGGPSLS [G21P] | 2.65 |
| FGGGSTRGGSLLAGGGGFGGNSLS [G21N] | 2.48 |
| FGGGSTRGGSLLAGGGGFGGLSLS [G21L] | 1.52 |

Variants of: B2
Test: as above
Details: c terminus: a fixed tail appended

| Variant | protein stability index |
| --- | --- |
| CRNCINLQNEAQKRESFLKYKCLY [L24Y] | 1.69 |
| CRNCINLQNEAQKRESFLKYKCLM [L24M] | 1.79 |
| CRNCINLQNEAQKRESFLKYKCLQ [L24Q] | 1.74 |
| CRNCINLQNEAQKRESFLKYKCLC [L24C] | 3.57 |
| CRNCINLQNEAQKRESFLKYKCLD [L24D] | 2.81 |
| CRNCINLQNEAQKRESFLKYKCLH [L24H] | 2.19 |
| CRNCINLQNEAQKRESFLKYKCLN [L24N] | 1.86 |
| CRNCINLQNEAQKRESFLKYKCLV [L24V] | 1.27 |
| CRNCINLQNEAQKRESFLKYKCLE [L24E] | 1.65 |
| CRNCINLQNEAQKRESFLKYKCLW [L24W] | 1.46 |
| CRNCINLQNEAQKRESFLKYKCLR [L24R] | 1.82 |
| CRNCINLQNEAQKRESFLKYKCLK [L24K] | 2.53 |
| CRNCINLQNEAQKRESFLKYKCLS [L24S] | 3.46 |
| CRNCINLQNEAQKRESFLKYKCLF [L24F] | 1.82 |
| CRNCINLQNEAQKRESFLKYKCLA [L24A] | 2.56 |
| CRNCINLQNEAQKRESFLKYKCLT [L24T] | 1.8 |
| CRNCINLQNEAQKRESFLKYKCLI [L24I] | 1.75 |
| CRNCINLQNEAQKRESFLKYKCLG [L24G] | 1.37 |
| CRNCINLQNEAQKRESFLKYKCLP [L24P] | 2.22 |

Variants of: B3
Test: as above
Details: c terminus: a fixed tail appended

| Variant | protein stability index |
| --- | --- |
| CVGELIIWDALDWTMQAYERNFWD [H1C] | 2.04 |
